The text below walks through data of patent publication US7824885B2, “Engineered proteases for affinity purification and processing of fusion proteins” (University of Maryland, College Park, priority 2003, dated 2010).

Format in all cases: biochemical
One test concerns 671 (pR58FKAM-GB). As to the kind of experiment: fluoride-triggered cleavage/elution of 671 fusion protein on S189HT1 column. To be noted: cleavage/elution by 0.1M KF, FIG. 14. The protocol:
(10 μl of 1 ml fraction 1; ˜7 μg total) • Lane 6: cleavage/elution by 0.1 M KF. (10 μl of 1 ml fraction 2; ˜3 μg total) • Lane 7: strip by 0.1 M H3PO4 (10 μl of 1 ml fraction 1; ˜10 μg total in both bands combined).

In the next test the test system is fusion protein pR58-GB. Briefly: kinetics of fusion protein pR58-GB cleavage by D32 mutants, anion triggered. The following applies: 0.1M KPi; for Rate vs. [Cl]: pH 8.8, 23 C; for Rate vs. pH: 23 C. From the text: Particularly advantageous are processing proteases whose activity is triggered on demand. Ions which have been useful as triggers are OH— (pH), Cl— and F—. The tables summarize cleavage rates of various D32 mutants as a function of specific anion.
Thus, S189 can be trigger to increase cleavage rates if desired and this can be very advantageous when required in a purification process. Once the fusion protein is bonded to the subtilisin variant to form a binding complex, the target protein can be cleaved from the prodomain protein by activation of the subtilisin variant with the introduction of an activating ion solution.

The next test has as its system pR58-GB. Briefly: binding and cleavage of pR58-GB on immobilized S189 matrix. On the procedure: The binding and catalytic properties of processing subtilisin allows them to be used as both the affinity matrix and processing protease for purification of proteins tagged with the pR58 sequence.
An E. coli cell lysate containing pR58-GB was passed over the matrix containing immobilized S189. Cleavage of the bound fusion protein then was then effected either by addition of a triggering anion (e.g. 10 mM KF) or by extended incubation (e.g. 18 hours at pH 7.2) as shown in FIG. 6. After cleavage the pure, processed protein was washed off the matrix while the cognate prodomain remains tightly bound to subtilisin on the matrix. Multiple rounds of purification can be affected by stripping the pR58 from the S189 column at pH 2.1 and re-equilibrating the column at neutral pH. High stable and facile-folding mutants such as those listed in the Table 1 (FIG. 3) of Processing Subtilisin are required for column recycling.

B1: S189: processing subtilisin with D32A mutation (protein, UniProt P00782 108-382, looked up, variant D32A)
Subtilisin BPN': AQSVPYGVSQIKAPALHSQGYTGSNVKVAVIASGIDSSHPDLKVAGGASMVPSETNPFQDNNSHGTHVAGTVAALNNSIGVLGVAPSASLYAVKVLGADGSGQYSWIINGIEWAIANNMDVINMSLGGPSGSAALKAAVDKAVASGVVVVAAAGNEGTSGSSSTVGYPGKYPSVIAVGAVDSSNQRASFSSVGPELDVMAPGVSIQSTLPGNKYGAYNGTSMASPHVAGAAALILSKHPNWTNTQVRSSLENTTTKLGDSFYYGKGLINVQAAAQ
B1 displayed a cleavage reaction complete in the test on 671 (pR58FKAM-GB) of roughly 90%. In the test with fusion protein pR58-GB (pH 7.2, 23 C), this molecule registered a Rate of 0.18 h⁻¹. In addition, the “Rate vs. [Cl]” value in the test with fusion protein pR58-GB ([Cl] 0 M) was 0.97 h⁻¹; in the test on fusion protein pR58-GB ([Cl] 0.5 M) it was 5 h⁻¹. The “Rate vs. [F]” value was determined as 0.003 min⁻¹ in the test with fusion protein pR58-GB ([F] 0 mM, pH 7.2, 23 C); 0.018 min⁻¹ in the test with fusion protein pR58-GB ([F] 1 mM, pH 7.2, 23 C); 0.14 min⁻¹ with fusion protein pR58-GB ([F] 10 mM, pH 7.2, 23 C); 0.8 min⁻¹ in the test with fusion protein pR58-GB ([F] 100 mM, pH 7.2, 23 C). Further, the “Rate vs. pH” value in the test with fusion protein pR58-GB (pH 5.7) is 0.135 hr^−1; in the test on fusion protein pR58-GB (pH 7.2), 0.18 hr^−1; with fusion protein pR58-GB (pH 8.8), 0.97 hr^−1; with fusion protein pR58-GB (pH 10.0), 4 hr^−1. Also, the “rate of binding to the prodomain” value in the test with pR58-GB (FIG. 5) is reported as “rapid”. Besides, the half-time of cleavage entry in the test on pR58-GB (FIG. 6, a lag phase is evident) is reported as “about four”.
